Assay results taken from US8598314B2 (priority 2007, dated 2013).

How the values were obtained:
[1] = test system: NIH/Swiss female mice; experiment: Transient effect on blood glucose and body weight; format: in vivo; conditions: 250 nmol/kg subcutaneous injection; for effect on body weight (in words): FIGS. 14B and 15B; for return of body weight to pre-treatment levels (in words): day 5, FIG. 15B
Experimental: A subcutaneous injection (200 μL) of vehicle (PBS) or test compound was given to NIH/Swiss female mice immediately following baseline glucose and body weight measurement. Tail blood glucose samples were measured (OneTouch® Ultra®, LifeScan Inc., Milpitas, Calif.) at baseline (time=0) and 2, 4, 8, 24, 48, 72 and 96 hrs. Body weight was measured daily. Significant test sample effects were identified by ANONA (p<0.05) followed by Dunnett's post test (GraphPad PRISM®, version 4.00 for Windows, GraphPad Software, San Diego, Calif.). Points in FIG. 14A, FIG. 14B, FIG. 15A and FIG. 15B represent mean±SD (standard deviation).

[2] = Peptide stability in human kidney brush border membranes; conditions: Table 6
Experimental: The tubes were incubated in VorTemp 56™ (Eurotech Labs, UK) at 37° C. vortexed at 500 RPM. At time points of 0, 1, 2, 3, 4, and 5 hours, 200 μl STOP solution (50% ACN, 1% formic acid) was added to a given tube, and the samples were allowed to incubate until the end of the experiment. The samples were collected after 5 hours, centrifuged, and 200 μl of the supernatants were transferred into mass spectrometry vials. The intensities of the mother ions in each vial were analyzed with API 150EX™ mass spectrometer (Applied Biosystems, Foster City, Calif.) and quantified using the ANALYST™ program.
The hKBBM assay was also performed in the presence of valinepyrrolidide, a DPP-IV inhibitor.

Row | Compound | effect on body weight (in words) [1] | return of body weight to pre-treatment levels (in words) [1] | Stability in hKBBM [2] [%]
1 | CC[C@H](C)[C@H](NC(=O)[C@H](Cc1ccccc1)NC(=O)[C@H](CC(C)C)NC(=O)[C@H](CCCNC(=N)N)NC(=O)[C@@H](NC(=O)[C@H](C)NC(=O)[C@H](CCC(=O)O)NC(=O)[C@H](CCC(=O)O)NC(=O)[C@H](CCC(=O)O)NC(=O)[C@H](CC(C)C)NC(=O)[C@H](CCC(N)=O)NC(=O)[C@H](CCCCN)NC(=O)[C@H](CO)NC(=O)[C@H](CC(C)C)NC(=O)[C@H](CC(=O)O)NC(=O)[C@H](CO)NC(=O)[C@@H](NC(=O)[C@H](Cc1ccccc1)NC(=O)[C@@H](NC(=O)CNC(=O)[C@H](CCC(=O)O)NC(=O)CNC(=O)[C@@H](N)Cc1c[nH]cn1)[C@@H](C)O)[C@@H](C)O)C(C)C)C(=O)N[C@@H](CCC(=O)O)C(=O)N[C@@H](Cc1c[nH]c2ccccc12)C(=O)N[C@@H](CC(C)C)C(=O)N[C@@H](CCCCN)C(=O)N[C@@H](CCC(N)=O)C(=O)NCC(=O)NCC(=O)N1CCC[C@H]1C(=O)N[C@@H](CO)C(=O)N[C@@H](CCCCN)C(=O)N[C@@H](CCC(=O)O)C(=O)N[C@H](C(=O)N[C@H](C(=O)N[C@@H](CO)C(=O)NCCCC(=O)NCCOCCOCC(=O)NCCCC(=O)NCCCCC(N)C(=O)N1CCSC1)[C@@H](C)CC)[C@@H](C)CC (some centres unmarked) [Compound 5932] | decrease in body weight, measurable at day 2 | body weight does not return to pre-treatment levels by day 5 | 63
2 | CC[C@H](C)[C@H](NC(=O)[C@H](Cc1ccccc1)NC(=O)[C@H](CC(C)C)NC(=O)[C@H](CCCNC(=N)N)NC(=O)[C@@H](NC(=O)[C@H](C)NC(=O)[C@H](CCC(=O)O)NC(=O)[C@H](CCC(=O)O)NC(=O)[C@H](CCC(=O)O)NC(=O)[C@H](CC(C)C)NC(=O)[C@H](CCC(N)=O)NC(=O)[C@H](CCCCN)NC(=O)[C@H](CO)NC(=O)[C@H](CC(C)C)NC(=O)[C@H](CC(=O)O)NC(=O)[C@H](CO)NC(=O)[C@@H](NC(=O)[C@H](Cc1ccccc1)NC(=O)[C@@H](NC(=O)CNC(=O)[C@H](CCC(=O)O)NC(=O)CNC(=O)[C@@H](N)Cc1c[nH]cn1)[C@@H](C)O)[C@@H](C)O)C(C)C)C(=O)N[C@@H](CCC(=O)O)C(=O)N[C@@H](Cc1c[nH]c2ccccc12)C(=O)N[C@@H](CC(C)C)C(=O)N[C@@H](CCCCN)C(=O)N[C@@H](CCC(N)=O)C(=O)NCC(=O)NCC(=O)N1CCC[C@H]1C(=O)N[C@@H](CO)C(=O)N[C@@H](CCCCN)C(=O)N[C@@H](CCC(=O)O)C(=O)N[C@H](C(=O)N[C@H](C(=O)N[C@@H](CO)C(=O)NCCCC(=O)NCCOCCOCC(=O)NCCCC(=O)NCCCCC(N)C(=O)N1CCC[C@H]1C#N)[C@@H](C)CC)[C@@H](C)CC (some centres unmarked) [Compound 5933] | decrease in body weight, measurable at day 2 which continues at least through day 5 | – | 87
3 | CC[C@H](C)[C@H](NC(=O)[C@H](Cc1ccccc1)NC(=O)[C@H](CC(C)C)NC(=O)[C@H](CCCNC(=N)N)NC(=O)[C@@H](NC(=O)[C@H](C)NC(=O)[C@H](CCC(=O)O)NC(=O)[C@H](CCC(=O)O)NC(=O)[C@H](CCC(=O)O)NC(=O)[C@H](CC(C)C)NC(=O)[C@H](CCC(N)=O)NC(=O)[C@H](CCCCN)NC(=O)[C@H](CO)NC(=O)[C@H](CC(C)C)NC(=O)[C@H](CC(=O)O)NC(=O)[C@H](CO)NC(=O)[C@@H](NC(=O)[C@H](Cc1ccccc1)NC(=O)[C@@H](NC(=O)CNC(=O)[C@H](CCC(=O)O)NC(=O)CNC(=O)[C@@H](N)Cc1c[nH]cn1)[C@@H](C)O)[C@@H](C)O)C(C)C)C(=O)N[C@@H](CCC(=O)O)C(=O)N[C@@H](Cc1c[nH]c2ccccc12)C(=O)N[C@@H](CC(C)C)C(=O)N[C@@H](CCCCN)C(=O)N[C@@H](CCC(N)=O)C(=O)NCC(=O)NCC(=O)N1CCC[C@H]1C(=O)N[C@@H](CO)C(=O)N[C@@H](CCCCN)C(=O)N[C@@H](CCC(=O)O)C(=O)N[C@H](C(=O)N[C@H](C(=O)N[C@@H](CO)C(=O)NCCOCCOCC(=O)NCCCC[C@H](N)C(=O)N1CC[S+]([O-])C1)[C@@H](C)CC)[C@@H](C)CC (some centres unmarked) [Compound 5934] | – | – | 97
4 | CC[C@H](C)[C@H](NC(=O)[C@H](Cc1ccccc1)NC(=O)[C@H](CC(C)C)NC(=O)[C@H](CCCNC(=N)N)NC(=O)[C@@H](NC(=O)[C@H](C)NC(=O)[C@H](CCC(=O)O)NC(=O)[C@H](CCC(=O)O)NC(=O)[C@H](CCC(=O)O)NC(=O)[C@H](CC(C)C)NC(=O)[C@H](CCC(N)=O)NC(=O)[C@H](CCCCN)NC(=O)[C@H](CO)NC(=O)[C@H](CC(C)C)NC(=O)[C@H](CC(=O)O)NC(=O)[C@H](CO)NC(=O)[C@@H](NC(=O)[C@H](Cc1ccccc1)NC(=O)[C@@H](NC(=O)CNC(=O)[C@H](CCC(=O)O)NC(=O)CNC(=O)[C@@H](N)Cc1c[nH]cn1)[C@@H](C)O)[C@@H](C)O)C(C)C)C(=O)N[C@@H](CCC(=O)O)C(=O)N[C@@H](Cc1c[nH]c2ccccc12)C(=O)N[C@@H](CC(C)C)C(=O)N[C@@H](CCCCN)C(=O)N[C@@H](CCC(N)=O)C(=O)NCC(=O)NCC(=O)N1CCC[C@H]1C(=O)N[C@@H](CO)C(=O)N[C@@H](CCCCN)C(=O)N[C@@H](CCC(=O)O)C(=O)N[C@H](C(=O)N[C@H](C(=O)N[C@@H](CO)C(=O)NCCOCCOCC(=O)NCCCCC(N)C(=O)N1CCSC1)[C@@H](C)CC)[C@@H](C)CC (some centres unmarked) [Compound 5953] | – | – | 76
5 | CC[C@H](C)[C@H](NC(=O)[C@H](Cc1ccccc1)NC(=O)[C@H](CC(C)C)NC(=O)[C@H](CCCNC(=N)N)NC(=O)[C@@H](NC(=O)[C@H](C)NC(=O)[C@H](CCC(=O)O)NC(=O)[C@H](CCC(=O)O)NC(=O)[C@H](CCC(=O)O)NC(=O)[C@H](CC(C)C)NC(=O)[C@H](CCC(N)=O)NC(=O)[C@H](CCCCN)NC(=O)[C@H](CO)NC(=O)[C@H](CC(C)C)NC(=O)[C@H](CC(=O)O)NC(=O)[C@H](CO)NC(=O)[C@@H](NC(=O)[C@H](Cc1ccccc1)NC(=O)[C@@H](NC(=O)CNC(=O)[C@H](CCC(=O)O)NC(=O)CNC(=O)[C@@H](N)Cc1c[nH]cn1)[C@@H](C)O)[C@@H](C)O)C(C)C)C(=O)N[C@@H](CCC(=O)O)C(=O)N[C@@H](Cc1c[nH]c2ccccc12)C(=O)N[C@@H](CC(C)C)C(=O)N[C@@H](CCCCN)C(=O)N[C@@H](CCC(N)=O)C(=O)NCC(=O)NCC(=O)N1CCC[C@H]1C(=O)N[C@@H](CO)C(=O)N[C@@H](CCCCN)C(=O)N[C@@H](CCC(=O)O)C(=O)N[C@H](C(=O)N[C@H](C(=O)N[C@@H](CO)C(=O)NCCOCCOCC(=O)NCCCC[C@H](N)C(=O)N1CCC[C@H]1C#N)[C@@H](C)CC)[C@@H](C)CC [Compound 5954, [^14Leu,^28Gln]Exendin-4-(1-32)-fGLP-1-(33-37)-miniPEG-(S)-2,6-diamino-1-(pyrrolidin-2-cyano-1-yl)hexan-1-amide] | – | – | 57
6 | CC[C@H](C)[C@H](NC(=O)[C@H](Cc1ccccc1)NC(=O)[C@H](CC(C)C)NC(=O)[C@H](CCCNC(=N)N)NC(=O)[C@@H](NC(=O)[C@H](C)NC(=O)[C@H](CCC(=O)O)NC(=O)[C@H](CCC(=O)O)NC(=O)[C@H](CCC(=O)O)NC(=O)[C@H](CC(C)C)NC(=O)[C@H](CCC(N)=O)NC(=O)[C@H](CCCCN)NC(=O)[C@H](CO)NC(=O)[C@H](CC(C)C)NC(=O)[C@H](CC(=O)O)NC(=O)[C@H](CO)NC(=O)[C@@H](NC(=O)[C@H](Cc1ccccc1)NC(=O)[C@@H](NC(=O)CNC(=O)[C@H](CCC(=O)O)NC(=O)CNC(=O)[C@@H](N)Cc1c[nH]cn1)[C@@H](C)O)[C@@H](C)O)C(C)C)C(=O)N[C@@H](CCC(=O)O)C(=O)N[C@@H](Cc1c[nH]c2ccccc12)C(=O)N[C@@H](CC(C)C)C(=O)N[C@@H](CCCCN)C(=O)N[C@@H](CCC(N)=O)C(=O)NCC(=O)NCC(=O)N1CCC[C@H]1C(=O)N[C@@H](CO)C(=O)N[C@@H](CCCCN)C(=O)N[C@@H](CCC(=O)O)C(=O)N[C@H](C(=O)N[C@H](C(=O)N[C@@H](CO)C(=O)NCCCC(=O)NCCOCCOCC(=O)NCCCC(=O)NCCCCC(N)C(=O)N1CCS(=O)(=O)C1)[C@@H](C)CC)[C@@H](C)CC (some centres unmarked) [Compound 5955] | decrease in body weight, measurable at day 2 | body weight returns to pre-treatment levels by day 5 | 36
